The text below walks through data of patent US20210253709A1 (SUZHOU SMARTNUCLIDE BIOPHARMACEUTICAL, published 2021).

The target of experiment [1] is T1, PDL1-Fc fusion protein (human, UniProt Q9NZQ7 19-238, limits assumed).
T1 construct: Transiently expressed in HEK293 and used as the plate coat in the ELISAs; not shown: Fc part
The experiment is described as follows: ELISA, plate coated with PDL1-Fc 0.5 ug/well, detection anti-his-HRP, OD405, 4-parameter fit (Plot1; same fit values as in Figure 2). The method, then: (§1) The PDL1-Fc fusion protein was transiently expressed by HEK293 and purified by nickel column affinity chromatography. […] After washing, the anti-his horseradish peroxidase labeled antibody was added and incubated at room temperature for 1 hour. After washing, the developing solution was added, and the absorption value was read at wavelength of 405 nm. Application software SotfMaxPro v5.4 is used for data processing and mapping analysis.

The target of experiment [2] is T1, PDL1-Fc fusion protein. As to the kind of experiment: ELISA, plate coated with PDL1-Fc 0.5 ug/well, detection anti-his-HRP, OD405, 4-parameter fit (Plot2). The method, then:
as §1

For experiment [3], the target named is PD-L1 target protein (Biacore ligand) (UniProt Q9NZQ7 19-238, limits assumed). As to the kind of experiment: SPR (Biacore T200), 25 C, 109 as analyte at 3.125-200 ng/ml. As for the experimental part:
The experimental temperature of Biacore was 25° C. and the injection flow rate was 50 μl/min. The analyte was diluted with the HBS-EP+ buffer to a certain concentration, and was allowed to flow through the blank reference channel and the activated channel in turn. The signal value generated on the blank reference channel reflects the non-specific adsorption of the analyte on the chip, and the signal value generated on the activated channel reflects the specific binding between the analyte and the ligand. The analyte was introduced for 300 s, and then the HBS-EP+ buffer was introduced for 180 s to dissociate the analyte from the ligand. […] Different concentrations of analytes are repeatedly introduced and dissociated.

Sequence of PD-L1 target protein (Biacore ligand) (Q9NZQ7 19-238 limits assumed): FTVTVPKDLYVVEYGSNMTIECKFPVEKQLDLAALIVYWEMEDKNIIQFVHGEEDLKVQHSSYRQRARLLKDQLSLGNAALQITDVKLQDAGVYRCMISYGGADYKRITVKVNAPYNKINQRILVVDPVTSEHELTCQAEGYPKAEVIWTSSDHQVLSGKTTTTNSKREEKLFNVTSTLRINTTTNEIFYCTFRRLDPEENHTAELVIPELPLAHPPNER
T1 sequence (Q9NZQ7 19-238 limits assumed): as above

B1: 109-chis (VHH)
VHH: QVQLQESGGGSVQAGGSLRLSCTASGFSLDDSDMGWYRQARGNVCQLVSTIASDRSTYYTPSVKGRFTISHDRAKNTIYLQMNSLKPEDTAVYYCAAAPRLAYTTAMTCEGDFAYWGQGTQVTVSS
In turn, B1 gave an EC50 with PDL1-Fc fusion protein [1] of 2.89 ng/mL.

B2: ^69,71Ga-NOTA-109-chis (VHH)
VHH: QVQLQESGGGSVQAGGSLRLSCTASGFSLDDSDMGWYRQARGNVCQLVSTIASDRSTYYTPSVKGRFTISHDRAKNTIYLQMNSLKPEDTAVYYCAAAPRLAYTTAMTCEGDFAYWGQGTQVTVSS
modifications: one or two NOTA groups (from p-SCN-Bn-NOTA) conjugated per molecule, each chelating ^69,71Ga; conjugated lysines not assigned
notes: also called chelated products of PD-L1 single domain antibody protein
B2 registered an EC50 with PDL1-Fc fusion protein [2] of 3.62 ng/mL.

B3: 109 heavy-chain single domain antibody (VHH)
VHH: QVQLQESGGGSVQAGGSLRLSCTASGFSLDDSDMGWYRQARGNVCQLVSTIASDRSTYYTPSVKGRFTISHDRAKNTIYLQMNSLKPEDTAVYYCAAAPRLAYTTAMTCEGDFAYWGQGTQVTVSS
notes: Untagged form
In experiment [3], B3 returned a Kd of 1.73 nM, a koff of 0.000438 s⁻¹ and a kon of 253000 M⁻¹ s⁻¹.
